Experimental data: the supplement of paper PMC9112550, “Optimization of the antimicrobial peptide Bac7 by deep mutational scanning” (BMC Biology, 2022)

What follows are sequences tested on Escherichia coli TOP10 (assay: shrunken log2 fold change of peptide-encoding DNA abundance (4.5 h post-induction vs induction); higher = less antimicrobial activity (less host growth inhibition)). Details: time post-induction: 4.5 h; library: site-saturation at positions 5, 18, 19, 20.
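Also: peptides expressed intracellularly from a pBAD plasmid library in pooled LB shake-flask culture, induced with 0.3% L-arabinose, DNA abundance read by NGS, three biological replicates, DESeq2 with apeglm shrinkage.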

Sequence | shrunken log2 fold change
RRIRTRPPRLPRPRPRPEGHPRP | 0.0274
RRIRMRPPRLPRPRPRPHKEPRP | 0.0586
RRIRCRPPRLPRPRPRPDNCPRP | 0.0206
RRIRYRPPRLPRPRPRPTWKPRP | -0.333
RRIRMRPPRLPRPRPRPYFNPRP | -0.822
RRIRARPPRLPRPRPRPSESPRP | 0.0591
RRIRGRPPRLPRPRPRPTANPRP | 1.09
RRIRLRPPRLPRPRPRPHLAPRP | 0.053
RRIRWRPPRLPRPRPRPEDTPRP | -0.0372
RRIRARPPRLPRPRPRPAVLPRP | 0.549
RRIRYRPPRLPRPRPRPIQWPRP | -0.00101
RRIRVRPPRLPRPRPRPTMLPRP | -0.205
RRIRDRPPRLPRPRPRPTLTPRP | 0.717
RRIRGRPPRLPRPRPRPVHFPRP | 0.562
RRIRHRPPRLPRPRPRPNYWPRP | -0.358
RRIRCRPPRLPRPRPRPIIQPRP | -0.465
RRIRGRPPRLPRPRPRPRVSPRP | 0.45
RRIRIRPPRLPRPRPRPLPTPRP | 0.0405
RRIRLRPPRLPRPRPRPMVEPRP | -0.0178
RRIRARPPRLPRPRPRPDDMPRP | 0.371
RRIRSRPPRLPRPRPRPHWVPRP | -0.166
RRIRPRPPRLPRPRPRPGGCPRP | 0.295
RRIRYRPPRLPRPRPRPAQTPRP | 0.0654
RRIRIRPPRLPRPRPRPVTAPRP | -0.299
RRIRMRPPRLPRPRPRPGKQPRP | -0.00189

Sequence | shrunken log2 fold change
RRIRGRPPRLPRPRPRPGSKPRP | 0.0737
RRIRHRPPRLPRPRPRPYMQPRP | -0.476
RRIRQRPPRLPRPRPRPYKEPRP | -0.0137
RRIRIRPPRLPRPRPRPLAYPRP | -0.132
RRIRNRPPRLPRPRPRPVMDPRP | 0.0106
RRIRIRPPRLPRPRPRPYQFPRP | -0.141
RRIRMRPPRLPRPRPRPDAEPRP | 4.37
RRIRPRPPRLPRPRPRPTHCPRP | 0.1
RRIRDRPPRLPRPRPRPPVEPRP | -0.0332
RRIRVRPPRLPRPRPRPWCWPRP | -0.0537
RRIRCRPPRLPRPRPRPWHAPRP | -0.271
RRIRIRPPRLPRPRPRPVVAPRP | -0.0606
RRIRSRPPRLPRPRPRPKHFPRP | 0.0852
RRIRSRPPRLPRPRPRPDSSPRP | -0.418
RRIRVRPPRLPRPRPRPSCWPRP | 0.178
RRIRDRPPRLPRPRPRPDICPRP | -0.0418
RRIRWRPPRLPRPRPRPRWRPRP | 0.552
RRIRDRPPRLPRPRPRPGSCPRP | 0.127
RRIRPRPPRLPRPRPRPHDLPRP | 0.0288
RRIRKRPPRLPRPRPRPMIKPRP | -0.0199
RRIRSRPPRLPRPRPRPHFPPRP | -0.397
RRIRQRPPRLPRPRPRPQGYPRP | -0.19
RRIRGRPPRLPRPRPRPFTMPRP | -0.278
RRIRRRPPRLPRPRPRPDNHPRP | -0.215
RRIRWRPPRLPRPRPRPLKQPRP | 0.206

Sequence | shrunken log2 fold change
RRIRFRPPRLPRPRPRPFEDPRP | -0.0916
RRIRDRPPRLPRPRPRPVMRPRP | 0.592
RRIRKRPPRLPRPRPRPAQEPRP | 0.371
RRIRLRPPRLPRPRPRPYCWPRP | -0.37
RRIRARPPRLPRPRPRPFREPRP | -0.14
RRIRGRPPRLPRPRPRPKSIPRP | -0.0446
RRIRFRPPRLPRPRPRPQNKPRP | -0.592
RRIRSRPPRLPRPRPRPKIHPRP | -0.0501
RRIRHRPPRLPRPRPRPKINPRP | -0.817
RRIRFRPPRLPRPRPRPGQIPRP | -0.133
RRIRVRPPRLPRPRPRPPWCPRP | 0.497
RRIRVRPPRLPRPRPRPMVPPRP | -0.189
RRIRPRPPRLPRPRPRPHCQPRP | -0.0117
RRIRPRPPRLPRPRPRPVWFPRP | 0.0968
RRIRERPPRLPRPRPRPIQQPRP | -0.0452
RRIRWRPPRLPRPRPRPLKFPRP | -0.121
RRIRPRPPRLPRPRPRPQKGPRP | -0.0684
RRIRTRPPRLPRPRPRPLWYPRP | -0.245
RRIRHRPPRLPRPRPRPYFMPRP | -0.489
RRIRIRPPRLPRPRPRPDHFPRP | -0.0602
RRIRIRPPRLPRPRPRPLRNPRP | -0.0491
RRIRHRPPRLPRPRPRPTDYPRP | 0.029
RRIRERPPRLPRPRPRPYDGPRP | -0.0116
RRIRGRPPRLPRPRPRPWYWPRP | 0.187
RRIRDRPPRLPRPRPRPGWGPRP | 0.687
